Results on 13 molecules are retold here after patent USRE48522 (SURVAC, dated 2021).

Assay [1] has as its target HLA-B35 (human). Kind of assay: assembly assay: HLA-B35 stabilisation; against sur51-59.
In assay [2] the target is HLA-B35 (human). Kind of assay: assembly assay: HLA-B35 stabilisation, T2-B35 lysate, W6/32 IP, IEF gel.
The target of the next assay is HLA-A1 (HLA-A*0101) (human). Kind of assay: assembly assay: HLA stabilisation, TAP-deficient cell lysate, W6/32 IP, IEF gel.
In the next assay the target is HLA-A3 (HLA-A*0301) (human). The description is as above.
In another assay the target is HLA-A11 (HLA-A*1101) (human). The description is as above.
A further assay concerns the target T1, HLA-A2 (HLA-A*0201) (human).
T1 construct: MHC class I molecule to which the peptide is added in the assembly assay (T2 cells); folded molecules are immunoprecipitated with conformation-dependent antibody
The description is as above.

The target of assay [3] is HLA-B35 (human). Description: assembly assay: HLA-B35 stabilisation; against sur46-54.

Some results are limits rather than exact numbers.

B1: Sur51Y9 (peptide)
peptide: EPDLAQCFY
notes: Analogue of survivin51-59 with the C-terminal F replaced by Y
With B1, in the assay with HLA-B35 [1], the “fold higher affinity relative to the native peptide” value was 5 to 10 fold. Also, the C50 with HLA-B35 [2] is 1.5 µM.
Turning to EPDLAQCFF [Sur51-59 (Survivin51-59)], the C50 in the assay with HLA-B35 [2] turned out to be 13 µM. The binding result in the assay with HLA-A1 (HLA-A*0101) was “no binding (tested: 40, 4, 0.4, 0.04 µM)”.
In the case of CAFLSVKKQF [Sur 84-93], the binding result was “no binding (tested: 100, 10, 1, 0.1, 0.01 µM)” in the assay with HLA-A3 (HLA-A*0301) and “no binding (tested: 40, 4, 0.4, 0.04 µM)” with HLA-A11 (HLA-A*1101).
As for LAQCFFCFKEL [Sur54-64], the binding result with HLA-A2 (HLA-A*0201) is on record as “no binding (tested: 100, 10, 1, 0.1, 0.01 µM)”.
Same read-out and setting: to KLDRERAKNKI [Sur103-113] belongs “no binding (tested: 100, 10, 1, 0.1, 0.01 µM)”.

B2: Sur46Y9 (peptide)
peptide: CPTENEPDY
notes: Analogue of survivin46-54 with the C-terminal L replaced by Y
In the case of B2, the “fold higher affinity relative to the native peptide” value with HLA-B35 [3] fell in the range of 5 to 10 fold. This molecule also displayed a C50 with HLA-B35 [2] of 4 µM.
For the molecule LPPAWQPFL [Sur6-14 (Survivin6-14)], the C50 with HLA-B35 [2] is greater than 100 µM.
Regarding KLDRERAKNK [Sur 103-112], the binding result in the assay with HLA-A3 (HLA-A*0301) is on record as “no binding (tested: 100, 10, 1, 0.1, 0.01 µM)”; with HLA-A11 (HLA-A*1101), “no binding (tested: 40, 4, 0.4, 0.04 µM)”.
PTLPPAWQPFL [Sur4-14]: in the assay with HLA-A2 (HLA-A*0201), the binding result is reported as “no binding (tested: 100, 10, 1, 0.1, 0.01 µM)”.
As to FLKLDRERAK [Sur 101-110], the binding result with HLA-A3 (HLA-A*0301) was “no binding (tested: 100, 10, 1, 0.1, 0.01 µM)”; with HLA-A11 (HLA-A*1101), “no binding (tested: 40, 4, 0.4, 0.04 µM)”.
For the molecule TPERMAEAGF (also called sur34-46 (as printed once)) [Sur34-43 (Survivin34-43)], in the assay with HLA-B35 [2], the C50 was greater than 100 µM. For the same molecule, in the assay with HLA-A1 (HLA-A*0101), the binding result was “no binding (tested: 40, 4, 0.4, 0.04 µM)”.
On to CPTENEPDL [Sur46-54 (Survivin46-54)], for which the C50 in the assay with HLA-B35 [2] is 20 µM.
As to SVKKQFEELTL [Sur88-98], the binding result with HLA-A2 (HLA-A*0201) was “no binding (tested: 100, 10, 1, 0.1, 0.01 µM)”.
